The results in this text go back to the nanobody polyreactivity screen of Harvey et al. (2022).

A short description of this data set: yeast display, Sf9 membrane polyspecificity reagent, FACS + sequencing; frameworks hold sequencing errors. The procedure, abridged:
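Sorting gates, low and high (top ~1%), were placed on anti-HA fluorescence to track expression and on streptavidin fluorescence to track reagent binding. A clone's polyreactivity label is taken from the gate it came out of. The reagent was 10% biotinylated, detergent-solubilized Sf9 membrane, applied for 1 hour at 4 °C to galactose-induced yeast display cells.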
For “QVQLVESGGGLVQAGGSLRLSCAASGLTFQVYAMGWYRQAPGKERELVAGITRAGSTYYADSVKGRFTISRDNAKNTVYLQMNSLKPEDTAVYYCAARQPPPYYYWGQGTQVNVSS”, the “polyreactivity (PSR sort gate)” value is reported as “high polyreactivity”. With “QVQLVESGGGLVQAGGSLRLSCAASGLTFQYYAMGWYRQAPGKEREFVAAITRRGGNTYYADSVKGRFTISRDNAKNTVYLQMNSLKPEDTAVYYCAARYLQGRYDYWGQGTQVTVSS”, the “polyreactivity (PSR sort gate)” value is given as “high polyreactivity”. As for “QVQLVESGGGLVQAGGSLRLSCAASGLTFRHYAMGWYRQAPGKERELVAAITSSGGSTYYADSVKGRFTISRDNAKNTVYIQMNSLKPEDTAVYYCNARWSYFHAVSGVASDYWGQGTQVTVSS”, the “polyreactivity (PSR sort gate)” value is recorded as “high polyreactivity”. In the case of “QVQLVESGGGLVQAGGSLRLSCAASGLTFRLNAMGWYRQAPGKERELVAAITSIADRTYYADSVKGRFTISRDNAKNTVYLQMNSLKPEDTAVYYCNVTPRRAQVRIGNYWGQGTQVTVSS”, the “polyreactivity (PSR sort gate)” value is “high polyreactivity”. As for “QVQLVESGGGLVQAGGSLRLSCAASGLTFRRYAMGWYRPAPGKEREFVAAITHNGGRTYYADSVKGRFTISRDNAKNTVYLQMNSLKPEDTAVYYCNAGGQRVNYDYWGQGTQVTVSS”, the “polyreactivity (PSR sort gate)” value is given as “high polyreactivity”. As for “QVQLVESGGGLVQAGGSLRLSCAASGLTFRRYAMGWYRQAPGKDRELVAAISRGDNTNYADSVKGRFTISRDNAKNTVYLQMTSLKPEDTAVYFCAPRLWIRGNFNYWGQATQVTVSS”, the “polyreactivity (PSR sort gate)” value is given as “high polyreactivity”.

Take “QVQLVESGGGLVQAGGSLRLSCAASGLTFRRYDMGWYSQAPGKERELVAAITGGGSTYYADSVKGRFTISRDNAKNTVYLQMNSLKPEDTAGYYCAAGTWYWSYAYDYWGQGTQVTVSS”: the “polyreactivity (PSR sort gate)” value is given as “high polyreactivity”. For “QVQLVESGGGLVQAGGSLRLSCAASGLTFRSYSMGWYRQAPGKEREFVAAITGSGDTTYYADSVKGRFTISRDNAKNTVYLQMNSLKPEDTAVYYCNADRDYLWITLYEYWGQGTQVTVSS” the value was “high polyreactivity”. With “QVQLVESGGGLVQAGGSLRLSCAASGLTFRTYAMGWYRQAPGKERELVAAISRSGSTTYYADSVKGRFTISRDNAKNTVYLQMNSLKPEDTAVYYCAAVGIRWLEYWGQGTQVTVSS”, the “polyreactivity (PSR sort gate)” value was “high polyreactivity”. For “QVQLVESGGGLVQAGGSLRLSCAASGLTFRYYAMGRNRPARGKEREVVAVITTSTGTTYYADSVKGRFTISRDNAKNTVYLQMNSLKPEDTPVYYCATDTGAYLYSMYDYWGQVTQVTVSS”, the “polyreactivity (PSR sort gate)” value is “low polyreactivity”. With “QVQLVESGGGLVQAGGSLRLSCAASGLTFRYYAMGWYRQAPGKERELVATITRAGRTNYADSVKGRFTISRDNAKNTVYLQMNSLKPEDTAVYYCATKRVLTGYDSWGQGTQVTVSS”, the “polyreactivity (PSR sort gate)” value is recorded as “high polyreactivity”. With “QVQLVESGGGLVQAGGSLRLSCAASGLTFSAYTMGWYRQAPGKERELVAAIDRSGSTYYADSVKGRFTISRDNAKNTVYLQMNSLKPEDTAVYYCAADAVRKDLFDYWGQGTQVTVSS”, the “polyreactivity (PSR sort gate)” value is “low polyreactivity”. Consider “QVQLVESGGGLVQAGGSLRLSCAASGLTFSLYAMGWYGQAPGKEREFVAAISSSGGSTYYADSVKGRFTISRDNAKNTVYLQMNSLKPEDTAVYYCNVRRKSRMGYWGQGTQVTVSS”, for which the “polyreactivity (PSR sort gate)” value is on record as “high polyreactivity”. “QVQLVESGGGLVQAGGSLRLSCAASGLTFSLYAMGWYRQAPGKERELVAAISSSGSTYYADSVKGRFTISRDNAKNTVYLQMNILKPEDTAVYYFAADAPWWIDPIAGNYWGQGTQVTVSS”: the “polyreactivity (PSR sort gate)” value was “high polyreactivity”. Take “QVQLVESGGGLVQAGGSLRLSCAASGLTFSRYAMGWYRQAPGKERELVAAISGSGGSTYYADSVKGRFTISRDNAKNTVYLQMNSLKPEDTAVYYCNKYRATNSARDYWGQGTQVTVSS”: the “polyreactivity (PSR sort gate)” value is given as “high polyreactivity”. With “QVQLVESGGGLVQAGGSLRLSCAASGLTFSRYAMGWYRQAPGKERELVATIRSAGSTYYADSVKGRFTISRDNAKNTVYLQMNTLKPEDTAVYYCATAPYYHVKQRYYYWGQGTQVTVSS” the entry was “high polyreactivity”; with “QVQLVESGGGLVQAGGSLRLSCAASGLTFSRYARGWYRQAPGKERELVAAITGSGGNTYYADSVKGRFTISRDNAKNTVYLQMNSLKPEETAVYYCAARDRGDVTRRKGYYWGQGTQVTVSS”, “high polyreactivity”.

For “QVQLVESGGGLVQAGGSLRLSCAASGLTFSWYAMGWYRPAPGKERELVAAISSGGSTYYADSVKGRFTISRDNAKNTVYLQMNSLKPEDTAVYYCNAESYYYGFFWSGFRYGYWGQGTQVTVSS”, the “polyreactivity (PSR sort gate)” value is on record as “high polyreactivity”. For the sequence “QVQLVESGGGLVQAGGSLRLSCAASGLTFTGNAMGWNRQAPGKEREFVAAIRWSAGSTYYADSVKGRFTISRDNAKNTVYLQMNSLKPEDSAVYYCNAGLNVSGHYPNDYWGQGTQVTVSS”, the “polyreactivity (PSR sort gate)” value is “low polyreactivity”.

On to “QVQLVESGGGLVQAGGSLRLSCAASGLTFTGYAMGWYRQAPGKERELVAAISSRGGSTYYADSVKGRFTISRDNAKNTVYLQMNSLKPEDTAVYYCAARASSGARGLDYWGQGTQVTVSS”, for which the “polyreactivity (PSR sort gate)” value is reported as “high polyreactivity”. Take “QVQLVESGGGLVQAGGSLRLSCAASGLTFTGYAMGWYRQAPGKERELVASISRSGASTFYADSVKGRFTISRDNAKNTVYLQMNSLKPEDTAVYYCAAVPGWLTSRYYYWGQGTHVTVSS”: the “polyreactivity (PSR sort gate)” value is reported as “high polyreactivity”. “QVQLVESGGGLVQAGGSLRLSCAASGLTFTHYARGWYREAPGKERELVAAISRSGGTTYYADSVKGRFTISRDNAKNTLYFQMNSLKPEDTAVYYCAARWWYRYNYDYWGLGTQVTVSS”: the “polyreactivity (PSR sort gate)” value was “high polyreactivity”.

Take “QVQLVESGGGLVQAGGSLRLSCAASGLTFTSNVMGWYRQAPGKERELVAAISSGGSTYYADSVKGRFTISRDNAKNTVYLQMNSLKPEDTAVYYCNTKLWGQYDYWGQGTQVTVSS”: the “polyreactivity (PSR sort gate)” value is on record as “low polyreactivity”. With “QVQLVESGGGLVQAGGSLRLSCAASGLTFTYYAMGWYRQAPGKERELVAAISWSGGSTYYADSVKGRFTISRDNAKNTVYLQMNSLKPEDTAVYYCAAATAYYRYRGGYDYWGQGTQVTVSS” the entry was “high polyreactivity”. With “QVQLVESGGGLVQAGGSLRLSCAASGLTFTYYAMGWYRQAPGKERELVAVISRRGGSTYYADSVKGRFTISRDNAKNTVYLQMNSLKPEDTAVYYCAATNLQSAYDYWGHGTQVTVSS” the entry was “high polyreactivity”; with “QVQLVESGGGLVQAGGSLRLSCAASGLTFVDYAMGWYRQAPGKERELVASIDYSGSSTYYADSVKGRFTISRDNAKNTVYLQMNSLKPEDTAVYYCAATDSGEYWGQGTQVTVSS”, “low polyreactivity”. As for “QVQLVESGGGLVQAGGSLRLSCAASGLTFVENAMGWYRQAPGKERELVASISNGGSTYYADSVKGRFTISRDNAKNTVYLQMNSLKQEDTAVYYCAAGYWAGYGSTAPYDYWGQGTQVTVSS”, the “polyreactivity (PSR sort gate)” value is on record as “low polyreactivity”. In the case of “QVQLVESGGGLVQAGGSLRLSCAASGLTFVPNAMRWYRQAPGKERELVAAISNNGGRTYYADSVKGRFTISRDNAKNTVYLQMNSLKPEDTAVYYCAKSLSPGERHSYDYRGQGTQVTVSS”, the “polyreactivity (PSR sort gate)” value is on record as “high polyreactivity”. For the sequence “QVQLVESGGGLVQAGGSLRLSCAASGLTFVPYAMGWYRQAPGKERELVAAIDSGGRTNYADSVKGRFTISRDNAKNTVYLQMNSLKPEDTAVYYCAVEWLSYYDENDYWGQGTQVTVSS”, the “polyreactivity (PSR sort gate)” value is “high polyreactivity”. On to “QVQLVESGGGLVQAGGSLRLSCAASGLTFVQYTMGWYRQAPGKERELVAVITSASSTNYADSVKGRFTISRDNAKNTVYLQMNSLKPEDTAVYYCNATTYPYYTNSYQYEYWGQGTQVTVSS”, for which the “polyreactivity (PSR sort gate)” value was “low polyreactivity”. For the sequence “QVQLVESGGGLVQAGGSLRLSCAASGLTFVTYVMGWYRQAPGKERELVAAISYSGGSTYYADSVKGRFTISRDNAKNTVYLQMNSLKPEDTAVYYCAAEWYGYQEDDYRGQGTQVTVSS”, the “polyreactivity (PSR sort gate)” value is listed as “low polyreactivity”. Take “QVQLVESGGGLVQAGGSLRLSCAASGLTFVVYAMGWYRQAPGKERELVAAISSTGNTYYADSEKGRFTISRDNAKNTVYLQMNSLKPEDTAVYYCAAERSFYWYHFDYWGQGTQVTVSS”: the “polyreactivity (PSR sort gate)” value is listed as “high polyreactivity”.

In the case of “QVQLVESGGGLVQAGGSLRLSCAASGLTFVWYAMGWYRQAPGKERELVASITRRGVSTYADSVKGRFTISRDNAKNTVYLQMNSLKPEDTAVYYCKAQLIYKKGWYDYWGQGTQVTVSS”, the “polyreactivity (PSR sort gate)” value is on record as “high polyreactivity”. Take “QVQLVESGGGLVQAGGSLRLSCAASGLTFVYYAMGWYRQAPGKERELVATISWDGGSTYYADSVKGRFTISRDNAKNTVYLQLNRLKPEDTAVYYCNKYVFDRYIYETEYDYWGQGTQVTVSS”: the “polyreactivity (PSR sort gate)” value is given as “high polyreactivity”. As to “QVQLVESGGGLVQAGGSLRLSCAASGLTFWDNAMGWYRQARGKERELVAAIRGGGSTYYADSVKGRFTISRDNAKNTVYLQMNSIIPEDTAVYYCNKQYWYWSNTLTIRDYWGQGTQVTVSS”, the “polyreactivity (PSR sort gate)” value was “low polyreactivity”. For “QVQLVESGGGLVQAGGSLRLSCAASGLTFWLNAMGWYRQAPGKERELVAAIRYSGGGTYADSVKGRFTISRDNAKNTVYLQMNSLKPEDPAVYYCAALYNLGYPQFDYWGQGTQVTVSS” the value was “low polyreactivity”; for “QVQLVESGGGLVQAGGSLRLSCAASGLTFYAYAMGWYRQAPGKERELVAAIRWSGGRTYYADSVKGRFTISRDTEKNTVYLQMNSLKPEDTAVYYCAAELSWRLYDYEYWGQGTQVTVSS”, “low polyreactivity”. In the case of “QVQLVESGGGLVQAGGSLRLSCAASGLTFYAYAMGWYRQAPGKERELVAGISRSGGRTYYADSVKGRFTISRDNAKNTVYLQMNSLKPEDTAVYYCAAGIPVTSRFYGMDWGQGTQVTVSS”, the “polyreactivity (PSR sort gate)” value is listed as “high polyreactivity”.

For “QVQLVESGGGLVQAGGSLRLSCAASGLTFYCYAMGWYRQAPGKERELVAAITSGDSTYYADSVKGRFTISRDNAKNTVYLQMNSLKPEDTAVYYCAAVGGYPRYGYWGQGTQVTVSS”, the “polyreactivity (PSR sort gate)” value is “high polyreactivity”. “QVQLVESGGGLVQAGGSLRLSCAASGLTFYGYAMGWYRQAPGKERELVAAIRWSGGRTYYADSVKGRFTISRDNAKNTVYLQMNSLKPEDTAVYYCAADYSRYYGGDYWGQGTQVTVSS”: the “polyreactivity (PSR sort gate)” value was “low polyreactivity”.

“QVQLVESGGGLVQAGGSLRLSCAASGLTFYGYVMGWYRQAPGKEWELVASISRSGGRTYYADSVKGRFTISRDNAKNTVFLQMNSLKPEDTAVYYCAKYLSRQSGDGEYDYWGQGTQVTVSS”: the “polyreactivity (PSR sort gate)” value is reported as “low polyreactivity”.
